Measured values as given in patent US20180312877A1, “METHOD FOR ISOMERIZING DOUBLE BONDS” (Research Foundation of the City University of New York, priority 2015, published 2018).

Assay: Z-ISO in vitro enzyme assay with substrate-containing liposomes
Type: biochemical, Zea mays
Description: Z-ISO in vitro enzyme assay. Preparation of substrate-containing liposomes. To produce the substrate, 9,15,9′-tri-cis-ζ-carotene (tri) from E. coli BL21(DE3) cultures, 400 ml of Luria-Bertani medium (I % tryptone, 0.5% yeast extract and 1% NaCl) containing chloramphenicol (34 μg per ml (Sigma-Aldrich)) was inoculated with 8 ml of overnight culture containing pACCRT-EBP (no. 150). Cultures were grown in the dark at 37° C., with shaking at 160 r.p.m. for 8 h before induction with 10 mM IPTG. Cultures were further incubated at 28° C., with shaking at 100 r.p.m. for 40 h and for an additional 2 d without shaking. Cells were centrifuged at 2,600 g, and pellets were resuspended in a total of 40 ml of methanol, distributed in four conical tubes with equal volumes of extract and then sonicated twice on ice (30 s each, at 60% power) with a Vibra Cell VC600 sonicator equipped with a tapered 3-mm microtip (Sonics & Materials). Extracts were centrifuged at 2,600 g for 10 min, and supernatants were transferred to 15-ml conical tubes and evaporated under nitrogen gas in the dark. Dried samples were resolubilized in 300 μl of methanol, transferred to 1.5-ml microfuge tubes, frozen at −80° C. for 1 h and centrifuged at 16,000 g at 4° C. Extractions were then combined, and 1 ml was used to prepare liposomes. Cells also accumulate […] (di), and therefore enzymatic conversion is measured as the ratio of di to tri isomers. For preparation of liposomes, 1 ml of substrate extract (58 μM, estimated by spectroscopy, with the molar extinction coefficient for ζ-carotene, ε400, equal to 138,000) was mixed with 35 μl of soybean L-α-phosphatidylcholine (Sigma-Aldrich, 99% pure) (20 mg per ml in methanol). The mixture was dried under N2, and this was followed by addition of 800 μl sonication buffer (25 mM HEPES, pH 7.8, 100 mM NaCl and 10% glycerol) and sonication on ice with a Vibra Cell VC600 sonicator equipped with a 3-mm tapered microtip (Sonics & Materials) for 1 min, at intervals of 10 s at 20% power.
In vitro reactions. […]

B1: Z-ISO: 15-cis-ζ-carotene isomerase from Zea mays (SEQ ID NO: 12), heme b enzyme, purified as TEV-cleavable MBP fusion (protein)
chain: MASQLRLHLAATPPLLPHRRPHLPRPLCPTLNPIRAPLPPLSRVLSHARPARAVGGGIEPKEGVVAEGDESGGGPVLVGEDSAAFELKDQSVASWAYFAGILGAVLVALNVLWIDPSTGVGTKFLDAVASVSDSHEVVMLLLTIIFAVVHSGMASLRESGEKIVGERVYRVLFAGISLPLAVTTIVYFINHRYDGTQLWQVQGITGIHELLWFSSFISFFFLYPSTFNLLEVAAVDKPKLHMWETGIMRITRHPQMVGQVIWCLAHTLWIGNSVAVAASVGLISHHLFGAWNGDRRLLSRYGEAFEVLKKRTSVMPFAAIIDGRQKLPKDYHKEFFRLPYVAITMLTLGAYFAHPLMQASSYQLPW
modifications: MBP fusion, TEV-cleavable; Zea mays
conversion of substrate to product (Z-ISO pretreated with dithionite, 10 mM final (reducing conditions)): Conversion of the substrate to product occurred | conversion of substrate to product (as-purified enzyme (considered to be oxidized)): not functional | conversion of substrate to product (heat-denatured Z-ISO): not functional
